Reference: patent US20110294748A1 (Janssen / Centocor, published 2011)

Experiments:
[1] = target: T1, soluble IGF1R (sIGF1R), extracellular domain of human insulin-like growth factor 1 receptor, carboxy-terminal … (human, UniProt P08069 31-932); experiment: ELISA, serially diluted PG-peptide fusion on coated sIGF1R
T1 construct: Bought from R&D Systems; GenBank NP-000866 is printed for the whole receptor; also called IFG1R
Description: Relative binding affinities of the PG-peptide fusions for sIGF1R were measured using ELISA. The Kds were determined using GraphPad Prism 4 software with a one site binding equation. 100 μl of 2 μg/ml sIGF1R(R&D Systems, Minneapolis, Minn.) in Dulbecco's Phosphate Buffer Saline (DPBS (−/−)) was coated onto a 96 well Black Maxisorp plates (Nunc, Rochester, N.Y.) overnight at 4° C. The plates were washed with TBST and the wells blocked with 200 μl/well Starting Block T20 (TBS) (Pierce, Rockford, Ill.) for 1 hr, room temperature with 300 rpm shaking. 75 μl/well of purified, serially diluted PG-peptide fusions, starting concentration 40 μM, was added into the wells and incubated for 1 h, room temperature with 300 rpm mixing; the volume was brought up to 100 μl with Starting Block T20. The plates were washed 3× with TBST and then probed with 100 μl/well Peroxidase labeled-Rabbit antibody (1:5000) (Rockland, Gilbertsville, Pa.), washed, and the signal was detected using 100 μl/well POD substrate (Roche, Indianapolis, Ind.). Chemiluminescence was detected using a Molecular Devices M5 plate reader.
The fusion protein with peptide clone 17 was unique in its binding profile in that the binding curve was bellshaped. […]

[2] = target: T1, soluble IGF1R (sIGF1R), extracellular …; experiment: ELISA, culture supernatant on 2 µg/ml coated sIGF1R, Attophos detection
Description: The binding of purified peptide-AP fusion proteins to sIGF1R was assessed using ELISA against immobilized sIGF1R. Briefly, bacteria transformed with each peptide-AP fusion expression vector were grown overnight and the following day the cultures were clarified by centrifugation at 4,500 rpm, 4° C. The supernatants were collected and 75 μl of each supernatant was assayed for binding to 2 μg/ml sIGF1R immobilized on ELISA plates. The bound peptides were detected using the Attophos Substrate (Roche, Indianapolis, Ind.) following the manufacturer's recommendation and read using a Molecular Devices M5 plate reader.

| binding result [1] | binding result [2] | Binder |
| --- | --- | --- |
| binds |  | PG-peptide fusion of clone 17 (protein G IgG domain with peptide SEQ ID NO: 13 at its C-terminus) (other, also called PG-peptide fusion clone 17; fusion protein with peptide clone 17) YKLILNGKTLKGETTTEAVDAATAEKVFKQYANDNGVDGEWTYDDATKTFTVTEDDIDEFLHQLHNLVNNVH |
|  | binds | peptide-Alkaline phosphatase-His6 fusion protein of clone 17 (other, Tested as bacterial culture supernatant; also called peptide-AP fusion clone 17) DDIDEFLHQLHNLVNNVHTPEMPVLENRAAQGDITTPGGARRLTGDQTAALRDSLSDKPAKNIILLIGDGMGDSEITAARNYAEGAGGFFKGIDALPLTGQYTHYALNKKTGKPDYVTDSAASATAWSTGVKTYNGALGVDIHEKDHPTILEMAKAAGLATGNVSTAELQGATPAALVAHVTSRKCYGPSATSEKCPGNALEKGGKGSITEQLLNARADVTLGGGAKTFAETATAGEWQGKTLREQAQTRGYQLVSDAASLNSVTEANQQKPLLGLFADGNMPVRWLGPKATYHGNIDKPAVTCTPNPQRNDSVPTLAQMTDKAIELLSKNEKGFFLQVEGASIDKQNHAANPCGQIGETVDLDEAVQRALEFAKKEGNTLVIVTADHAHASQIVAPDTKAPGLTQALNTKDGAVMVMSYGNSEEDSQEHTGSQLRIAAYGPHAANVVGLTDQTDLFYTMKAALGLKVPGGSGGGSGGGSGGGSGTPEMPVLENRAAQGDITTPGGARRLTGDQTAALRDSLSDKPAKNIILLIGDGMGDSEITAARNYAEGAGGFFKGIDALPLTGQYTHYALNKKTGKPDYVTDSAASATAWSTGVKTYNGALGVDIHEKDHPTILEMAKAAGLATGNVSTAELQGATPAALVAHVTSRKCYGPSATSEKCPGNALEKGGKGSITEQLLNARADVTLGGGAKTFAETATAGEWQGKTLREQAQTRGYQLVSDAASLNSVTEANQQKPLLGLFADGNMPVRWLGPKATYHGNIDKPAVTCTPNPQRNDSVPTLAQMTDKAIELLSKNEKGFFLQVEGASIDKQNHAANPCGQIGETVDLDEAVQRALEFAKKEGNTLVIVTADHAHASQIVAPDTKAPGLTQALNTKDGAVMVMSYGNSEEDSQEHTGSQLRIAAYGPHAANVVGLTDQTDLFYTMKAALGLKVPGNSHHHHHH |
